Measured values from IntAct's records for PubMed 17853893.

B1: Programmed cell death 6-interacting protein (Homo sapiens), Q8WUM4 (parent)
chain: MATFISVQLKKTSEVDLAKPLVKFIQQTYPSGGEEQAQYCRAAEELSKLRRAAVGRPLDKHEGALETLLRYYDQICSIEPKFPFSENQICLTFTWKDAFDKGSLFGGSVKLALASLGYEKSCVLFNCAALASQIAAEQNLDNDEGLKIAAKHYQFASGAFLHIKETVLSALSREPTVDISPDTVGTLSLIMLAQAQEVFFLKATRDKMKDAIIAKLANQAADYFGDAFKQCQYKDTLPKEVFPVLAAKHCIMQANAEYHQSILAKQQKKFGEEIARLQHAAELIKTVASRYDEYVNVKDFSDKINRALAAAKKDNDFIYHDRVPDLKDLDPIGKATLVKSTPVNVPISQKFTDLFEKMVPVSVQQSLAAYNQRKADLVNRSIAQMREATTLANGVLASLNLPAAIEDVSGDTVPQSILTKSRSVIEQGGIQTVDQLIKELPELLQRNREILDESLRLLDEEEATDNDLRAKFKERWQRTPSNELYKPLRAEGTNFRTVLDKAVQADGQVKECYQSHRDTIVLLCKPEPELNAAIPSANPAKTMQGSEVVNVLKSLLSNLDEVKKEREGLENDLKSVNFDMTSKFLTALAQDGVINEEALSVTELDRVYGGLTTKVQESLKKQEGLLKNIQVSHQEFSKMKQSNNEANLREEVLKNLATAYDNFVELVANLKEGTKFYNELTEILVRFQNKCSDIVFARKTERDELLKDLQQSIAREPSAPSIPTPAYQSSPAGGHAPTPPTPAPRTMPPTKPQPPARPPPPVLPANRAPSATAPSPVGAGTAAPAPSQTPGSAPPPQAQGPPYPTYPGYPGYCQMPMPMGYNPYAYGQYNMPYPPVYHQSPGQAPYPGPQQPSYPFPQPPQQSYYPQQ
partner: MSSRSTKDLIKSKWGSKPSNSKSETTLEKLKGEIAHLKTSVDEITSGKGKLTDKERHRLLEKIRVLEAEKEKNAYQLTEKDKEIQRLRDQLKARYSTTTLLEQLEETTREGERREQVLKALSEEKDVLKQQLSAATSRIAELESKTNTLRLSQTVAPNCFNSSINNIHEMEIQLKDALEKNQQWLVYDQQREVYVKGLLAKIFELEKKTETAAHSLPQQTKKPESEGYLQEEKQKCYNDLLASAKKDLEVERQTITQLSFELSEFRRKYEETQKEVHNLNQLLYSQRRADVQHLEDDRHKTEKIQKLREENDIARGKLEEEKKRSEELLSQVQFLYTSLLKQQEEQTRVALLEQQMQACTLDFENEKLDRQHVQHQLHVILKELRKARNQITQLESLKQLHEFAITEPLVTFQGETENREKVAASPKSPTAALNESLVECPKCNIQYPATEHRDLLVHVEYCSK

Variants of: B1
Details: with cep55_human CEP55, Q53EZ4

Variant | effect of a mutation on the interaction
G800A;P801A;P802A | disrupting interaction strength
